# Results from patent EP1644415B1 (Genetics Institute, LLC, dated 2010).
# T1: human IL-22R-Fc/IL-10R2-Fc heterodimer (human, UniProt Q8N6P7 16-228; Q08334 20-220)
# T1 construct: extracellular domain; Used as conditioned medium of CHO cells co-expressing both fusions; also called IL-22R/IL-10R2-Fc heterodimer; IL-22R-Fc/IL-10R2-Fc complex; not shown: human IgG1 Fc
# T1 sequence 1: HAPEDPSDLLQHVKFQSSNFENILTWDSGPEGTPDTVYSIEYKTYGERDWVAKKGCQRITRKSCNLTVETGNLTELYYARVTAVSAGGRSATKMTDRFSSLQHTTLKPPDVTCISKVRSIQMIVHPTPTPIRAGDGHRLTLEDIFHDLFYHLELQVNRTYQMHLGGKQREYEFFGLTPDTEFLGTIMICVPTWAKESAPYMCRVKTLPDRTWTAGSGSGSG
# T1 sequence 2: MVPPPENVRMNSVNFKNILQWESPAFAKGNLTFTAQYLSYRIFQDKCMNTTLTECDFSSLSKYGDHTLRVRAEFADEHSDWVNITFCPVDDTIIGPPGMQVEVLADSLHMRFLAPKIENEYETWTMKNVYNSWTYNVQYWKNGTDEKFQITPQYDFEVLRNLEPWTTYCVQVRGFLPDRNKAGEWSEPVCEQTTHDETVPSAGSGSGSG
# B1: human IL-22 with N terminal His/Flag tag (ligand)
# chain: GSGHHHHHHGSGDYKDDDDKAPISSHCRLDKSNFQQPYITNRTFMLAKEASLADNNTDVRLIGEKLFHGVSMSERCYLMKQVLNFTLEEVLFPQSDRFQPYMQEVVPFLARLSNRLSTCHIEGDDLHIQRNVQKLKDTVKKLGESGEIKAIGELDLLFMSLRNACI
# modifications: biotinylated with EZ-Link Sulfo-NHS-Biotin where used in ELISA (bio-IL-22); not biotinylated in Biacore and cell assays
# notes: Made in CHO cells, extensively glycosylated; also called hIL-22; huIL-22
# B2: human IL-22 binding protein-Fc fusion (Fc fusion)
# chain: TQSTHESLKPQRVQFQSRNFHNILQWQPGRALTGNSSVYFVQYKIYGQRQWKNKEDCWGTQELSCDLTSETSDIQEPYYGRVRAASAGSYSEWSMTPRFTPWWETKIDPPVMNITQVNGSLLVILHAPNLPYRYQKEKNVSIEDYYELLYRVFIINNSLEKEQKVYEGAHRAVEIEALTPHSSYCVVAEIYQPMLDRRSQRSEERCVEIPAGSGSGSG
# notes: Fc fusion homodimer, used as CHO conditioned medium; also called IL-22BP-Fc; hIL-22BP-Fc; not shown: human IgG1 Fc
# B3: human IL-22R extracellular domain-Fc fusion homodimer (Fc fusion)
# chain: HAPEDPSDLLQHVKFQSSNFENILTWDSGPEGTPDTVYSIEYKTYGERDWVAKKGCQRITRKSCNLTVETGNLTELYYARVTAVSAGGRSATKMTDRFSSLQHTTLKPPDVTCISKVRSIQMIVHPTPTPIRAGDGHRLTLEDIFHDLFYHLELQVNRTYQMHLGGKQREYEFFGLTPDTEFLGTIMICVPTWAKESAPYMCRVKTLPDRTWTAGSGSGSG
# notes: extracellular domain; Used as CHO conditioned medium, not purified; also called IL-22R-Fc; IL-22RECD-Fc; not shown: human IgG1 Fc
# Experiments:
# [1] = biological target: T1, human IL-22R-Fc/IL-10R2-Fc heterodimer; assay: Biacore, receptor-Fc from conditioned medium captured by anti-human IgG, IL-22 injected, 1:1 model
# [2] = biological target: B3; assay: as above
# [3] = biological target: B3; assay: ELISA, IL-22R-Fc captured on anti-human IgG, bio-IL-22 titrated (Figure 6A)
# [4] = biological target: T1, human IL-22R-Fc/IL-10R2-Fc heterodimer; assay: ELISA, 50 ng/ml total Fc captured on anti-human IgG, bio-IL-22 titrated (Figure 8A)
# [5] = biological target: T1, human IL-22R-Fc/IL-10R2-Fc heterodimer; assay: ELISA, 50 ng/ml total Fc of co-expressing CHO CM captured, bio-IL-22 5 ng/ml, no antibody (Figure 10C)
# [6] = biological target: B2; assay: Biacore, IL-22BP-Fc from conditioned medium captured by anti-human IgG, IL-22 injected, 1:1 model
# [7] = biological target: B1; assay: competition ELISA: IL-22BP-Fc pre-incubated with bio-IL-22 5 ng/ml, binding to captured IL-22R/IL-10R2-Fc heterodimer (Figure 11B)
# [8] = biological target: B1; assay: competition ELISA: IL-22BP-Fc pre-incubated with bio-IL-22 30 ng/ml, binding to captured IL-22R-Fc (Figure 11A)
# [9] = biological target: B1; assay: ELISA, bio-IL-22 on streptavidin plates, IL-22R-Fc titrated (Figure 6B)
# [10] = biological target: B3; assay: ELISA, IL-10R2-Fc added to captured IL-22R-Fc before bio-IL-22 (Figure 9A)
binder,measurement,setting,value
B1,Kd,[1],1.48 nM
same,Kd,[2],41 nM
same,EC50,[3],0.02 µg/mL
same,fold less bio-IL-22 needed for a comparable signal than with immobilized IL-22R-Fc homodimer,[4],8 fold
same,ELISA signal (absorbance at 450 nm),[5],2.5
same,Kd,[6],3.37 nM
B2,IC50,[7],2 nM
same,IC50,[8],4 nM
B3,EC50,[9],0.006 µg/mL
"human IL-10R2 extracellular domain-Fc fusion homodimer (Fc fusion, extracellular domain; Used as CHO conditioned medium, not purified; also called IL-10R2-Fc; IL-10R2ECD-Fc; not shown: human IgG1 Fc) MVPPPENVRMNSVNFKNILQWESPAFAKGNLTFTAQYLSYRIFQDKCMNTTLTECDFSSLSKYGDHTLRVRAEFADEHSDWVNITFCPVDDTIIGPPGMQVEVLADSLHMRFLAPKIENEYETWTMKNVYNSWTYNVQYWKNGTDEKFQITPQYDFEVLRNLEPWTTYCVQVRGFLPDRNKAGEWSEPVCEQTTHDETVPSAGSGSGSG",binding result,[10],no binding
